We go through 79 substances from patent US20100048677A1 (NEW YORK BLOOD CENTER, published 2010).

The test addresses αIIb (INTEGRIN, ALPHA 2B; PLATELET GLYCOPROTEIN IIB OF IIB/IIIA COMPLEX, ANTIGEN CD41) (human) (UniProt P08514). Nature of the test: αIIb complexes captured, mass spectrometry; No. Expts 1.

Chain of HOMER HOMOLOG 3 (DROSOPHILA) (Q9NSC5 whole entry): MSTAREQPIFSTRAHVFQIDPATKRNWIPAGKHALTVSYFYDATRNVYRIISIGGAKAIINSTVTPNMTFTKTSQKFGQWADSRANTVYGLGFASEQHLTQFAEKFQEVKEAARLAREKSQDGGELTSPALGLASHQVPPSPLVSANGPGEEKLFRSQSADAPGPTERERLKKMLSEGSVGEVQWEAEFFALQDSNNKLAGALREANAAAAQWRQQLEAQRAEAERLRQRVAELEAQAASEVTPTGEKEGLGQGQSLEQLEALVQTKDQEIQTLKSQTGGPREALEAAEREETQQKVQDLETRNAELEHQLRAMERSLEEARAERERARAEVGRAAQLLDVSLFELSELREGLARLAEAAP
Chain of UniProt Q8IYS1 (Q8IYS1 whole entry): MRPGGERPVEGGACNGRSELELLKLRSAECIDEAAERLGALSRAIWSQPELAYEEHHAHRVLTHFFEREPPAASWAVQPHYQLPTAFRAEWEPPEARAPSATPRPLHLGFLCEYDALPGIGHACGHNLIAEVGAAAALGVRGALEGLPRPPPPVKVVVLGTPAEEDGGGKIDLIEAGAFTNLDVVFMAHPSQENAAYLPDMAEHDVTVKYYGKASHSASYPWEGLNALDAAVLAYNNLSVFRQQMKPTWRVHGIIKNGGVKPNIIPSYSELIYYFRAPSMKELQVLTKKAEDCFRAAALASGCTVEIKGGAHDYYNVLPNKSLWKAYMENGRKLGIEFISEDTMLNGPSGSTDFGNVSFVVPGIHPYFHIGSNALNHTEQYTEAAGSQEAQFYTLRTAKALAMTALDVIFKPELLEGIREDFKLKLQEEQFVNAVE

“TRANSLOCASE OF INNER MITOCHONDRIAL MEMBRANE 50 HOMOLOG (from UniProt Q3ZCQ8 45-353)” registered a #Peptides of 4 peptides.

Turning to “SODIUM CHANNEL, VOLTAGE-GATED, TYPE X, ALPHA (from UniProt Q9Y5Y9 1-1956)”, the #Peptides is 11 peptides.

“GLUCO… AER61 (from UniProt Q5NDL2 18-527)” showed a #Peptides of 3 peptides.

As for “CHD9 (HYPOTHETICAL PROTEIN BC022889) (from UniProt Q3L8U1 1-2897)”, the #Peptides was determined as 7 peptides.

In turn, “HTRA SERINE … 2 (from UniProt O43464 134-458)” returned a #Peptides of 8 peptides.

Substance CORTACTIN (from UniProt Q14247 1-550) showed a #Peptides of 5 peptides.

For the substance “PROTEIN KINASE, AMP-…, BETA 1 NON-… SUBUNIT (from UniProt Q9Y478 2-270)”, the #Peptides stood at 9 peptides.

“NUDIX (NUCLEOSIDE DIPHOSPHATE LINKED MOIETY X)-TYPE MOTIF 19 (from UniProt A8MXV4 1-375)” gave a #Peptides of 10 peptides.

Substance “LECTIN, MANNOSE-BINDING, 1 (from UniProt P49257 31-510)” displayed a #Peptides of 16 peptides.

Substance “NON-POU DOMAIN CONTAINING, OCTAMER-BINDING (from UniProt Q15233 1-471)” returned a #Peptides of 32 peptides.

Take “PROTEIN PHOSPHATASE 1, REGULATORY (INHIBITOR) SUBUNIT 9A (from UniProt Q9ULJ8 1-1098)”: the #Peptides was found to be 6 peptides.

In turn, “PROTEIN KINASE, AMP-…, GAMMA 1 NON-… SUBUNIT (from UniProt P54619 1-331)” came in with a #Peptides of 12 peptides.

“RB1-INDUCIBLE COILED-COIL 1 (from UniProt Q8TDY2 1-1594)” yielded a #Peptides of 6 peptides.

With “ACTININ, ALPHA 3 (from UniProt Q08043 1-901)”, the #Peptides was found to be 8 peptides.

Consider “ADP-… GLUCOKINASE (from UniProt Q9BRR6 23-497)”, for which the #Peptides was 9 peptides.

On to “AMINOLEVULINATE, DELTA-, … (from UniProt P13716 1-330)”, for which the #Peptides amounted to 8 peptides.

With “MITOGEN-… PROTEIN KINASE KINASE KINASE 7 … PROTEIN 2 (from UniProt Q9NYJ8 1-693)”, the #Peptides was determined as 2 peptides.

Substance …-TRNA … 2 (from UniProt O95363 1-451) had a #Peptides of 13 peptides.

“DEAH (ASP-GLU-ALA-HIS) BOX PO… 38 (from UniProt Q92620 2-1227)” displayed a #Peptides of 3 peptides.

Substance “STATHMIN-LIKE 3 (from UniProt Q9NZ72 1-180)” gave a #Peptides of 2 peptides.

Turning to “ATP-BINDING CASSETTE, SUB-FAMILY A (ABC1), MEMBER 13 (from UniProt Q86UQ4 1-5058)”, the #Peptides was found to be 2 peptides.

“CORONIN, ACTIN BINDING PROTEIN, 1A (from UniProt P31146 2-461)”: the #Peptides came out at 2 peptides.

For “KERATIN 16 (FOCAL NON-EPIDERMOLYTIC PALMOPLANTAR KERATODERMA) (from UniProt P08779 1-473)”, the #Peptides was 28 peptides.

“KINESIN FAMILY MEMBER 14 (from UniProt Q15058 1-1648)”: the #Peptides is 7 peptides.

“PYRUVATE KINASE, MUSCLE (from UniProt P14618 2-531)” displayed a #Peptides of 13 peptides.

Take “COILED-COIL DOMAIN CONTAINING 50 (from UniProt Q8IVM0 2-306)”: the #Peptides stood at 7 peptides.

In turn, “ZINC FINGER PROTEIN 300 (from UniProt Q96RE9 1-604)” displayed a #Peptides of 3 peptides.

“ALPHA-2-MACROGLOBULIN (from UniProt P01023 24-1474)” showed a #Peptides of 2 peptides.

For the substance “RAB … LYSOSOMAL PROTEIN-LIKE 1 (from UniProt Q5EBL4 1-403)”, the #Peptides stood at 7 peptides.

Substance “ENGULFMENT AND CELL MOTILITY 1 (from UniProt Q92556 1-727)” came in with a #Peptides of 3 peptides.

The substance “FOUR AND A HALF LIM DOMAINS 1 (from UniProt Q13642 2-323)” yielded a #Peptides of 5 peptides.

CYCLIN B2 (from UniProt O95067 1-398) came in with a #Peptides of 2 peptides.

“LUC7L2 (CGI-59 PROTEIN) (from UniProt Q9Y383 1-392)” gave a #Peptides of 3 peptides.

With “PDZ AND LIM DOMAIN 7 (ENIGMA) (from UniProt Q9NR12 1-457)”, the #Peptides turned out to be 2 peptides.

“C5orf25 (FLJ44216 PROTEIN) (from UniProt Q8NDZ2 1-872)”: the #Peptides was found to be 4 peptides.

“UDP-GLUCOSE PYROPHOSPHORYLASE 1 (from UniProt Q16851 1-508)” registered a #Peptides of 13 peptides.

Regarding “KIAA0895 PROTEIN (from UniProt Q8NCT3 1-520)”, the #Peptides was 3 peptides.

In turn, “HETEROGENEOUS NUCLEAR RIBONUCLEOPROTEIN H1 (from UniProt P31943 1-449)” came in with a #Peptides of 9 peptides.

Substance … (from UniProt P02787 20-698) had a #Peptides of 7 peptides.

Take “HOMER HOMOLOG 3 (DROSOPHILA) (from UniProt Q9NSC5 1-361)”: the #Peptides amounted to 1 peptides.

For “PRE-B-CELL COLONY … FACTOR 1 (from UniProt P43490 1-491)”, the #Peptides turned out to be 6 peptides.

For “3-HYDROXY-3-METHYLGLUTARYL-COENZYME A SYNTHASE 1 (SOLUBLE) (from UniProt Q01581 1-520)”, the #Peptides was found to be 4 peptides.

Substance “CNDP … 2 (METALLO… M20 FAMILY) (from UniProt Q96KP4 2-475)” showed a #Peptides of 6 peptides.

“EXOSOME COMPONTENT 10 (from UniProt Q01780 1-885)”: the #Peptides amounted to 9 peptides.

As for “TUBULIN, BETA 4 (from UniProt P04350 1-444)”, the #Peptides was determined as 14 peptides.

“PATCHED DOMAIN CONTAINING 2 (from UniProt Q9P2K9 1-1392)” registered a #Peptides of 2 peptides.

“UBR4 (ZINC FINGER, UBR1 TYPE 1) (from UniProt Q5T4S7 1-5183)” returned a #Peptides of 8 peptides.

On to “DEHYDROGENASE E1 AND TRANSKETOLASE DOMAIN CONTAINING 1 (from UniProt Q96HY7 1-919)”, for which the #Peptides amounted to 25 peptides.

“AMINOACYLASE 1-LIKE 2 (from UniProt Q8IYS1 1-436)” returned a #Peptides of 13 peptides.

As to “SIN3A-ASSOCIATED PROTEIN, 130 kDa (from UniProt Q9H0E3 1-1048)”, the #Peptides stood at 5 peptides.

“U2(RNU2) SMALL NUCLEAR RNA AUXILIARY FACTOR 1 (from UniProt Q01081 2-240)” had a #Peptides of 1 peptides.

“ATP SYNTHASE, H+ TRANSPORTING, MITOCHONDRIAL F1 COMPLEX, ALPHA SUBUNIT 1, CARDIAC MUSCLE (from UniProt P25705 44-553)” yielded a #Peptides of 2 peptides.

In the case of “ZINC FINGER PROTEIN 703 (from UniProt Q9H7S9 2-590)”, the #Peptides was determined as 2 peptides.

Consider “…, DSH HOMOLOG 2 (DROSOPHILA) (from UniProt O14641 1-736)”, for which the #Peptides came out at 3 peptides.

“CHAPERONIN CONTAINING TCP1, SUBUNIT 7 (ETA) (from UniProt Q99832 1-543)” registered a #Peptides of 11 peptides.

In turn, CYCLIN K (from UniProt O75909 1-580) showed a #Peptides of 1 peptides.

“HEAT SHOCK 70 kDa PROTEIN 1B (from UniProt P0DMV9 2-641)” registered a #Peptides of 15 peptides.

Take “TUBULIN, BETA 2C (from UniProt P68371 1-445)”: the #Peptides was determined as 36 peptides.

For the substance “PROTEIN PHOSPHATASE 1, … SUBUNIT, ALPHA ISOFORM (from UniProt P62136 2-330)”, the #Peptides turned out to be 2 peptides.

The substance CYCLIN G1 (from UniProt P51959 1-295) displayed a #Peptides of 2 peptides.

Regarding “CHAPERONIN CONTAINING TCP1, SUBUNIT 4 (DELTA) (from UniProt P50991 2-539)”, the #Peptides was determined as 8 peptides.

Regarding “GLUTAMATE RECEPTOR, IONOTROPIC, N-METHYL D-… 2D (from UniProt O15399 28-1336)”, the #Peptides came out at 2 peptides.

“ATP CITRATE LYASE (from UniProt P53396 1-1101)” displayed a #Peptides of 5 peptides.

Substance …-… 9 (from UniProt Q86TI2 2-863) registered a #Peptides of 20 peptides.

For the substance “EUKARYOTIC ELONGATION FACTOR-2 KINASE (from UniProt O00418 2-725)”, the #Peptides stood at 4 peptides.

As for “SERPINE1 MRNA BINDING PROTEIN 1 (from UniProt Q8NC51 2-408)”, the #Peptides is 6 peptides.

“… CYCLASE 6 (from UniProt O43306 1-1168)”: the #Peptides amounted to 4 peptides.

For “ISOCITRATE DEHYDROGENASE 3 (NAD+) ALPHA (from UniProt P50213 28-366)”, the #Peptides is 5 peptides.

The substance “ALDO-KETO REDUCTASE FAMILY 7, MEMBER A2 (AFLATOXIN ALDEHYDE REDUCTASE) (from UniProt O43488 39-359)” showed a #Peptides of 19 peptides.

The substance “PRE-MRNA CLEAVAGE FACTOR I, 59 kDa SUBUNIT (from UniProt Q8N684 1-471)” gave a #Peptides of 6 peptides.

With “SRY (SEX … REGION Y)-BOX 6 (from UniProt P35712 1-828)”, the #Peptides amounted to 2 peptides.

In the case of KERATIN 19 (from UniProt P08727 1-400), the #Peptides was 3 peptides.

…-TRNA … 2 (from UniProt Q96I59 15-477) displayed a #Peptides of 2 peptides.

In turn, “POLYMERASE (DNA-DIRECTED), DELTA … PROTEIN 2 (from UniProt Q9Y2S7 52-368)” had a #Peptides of 11 peptides.

The substance HYPOTHETICAL PROTEIN FLJ22184 displayed a #Peptides of 4 peptides.

In turn, “SEC13-LIKE 1 (S. …) (from UniProt P55735 2-322)” had a #Peptides of 3 peptides.

In turn, “MYELOPEROXIDASE (from UniProt P05164 165-745)” registered a #Peptides of 3 peptides.

In turn, “HEAT SHOCK 70 kDa PROTEIN 1A (from UniProt P0DMV8 2-641)” gave a #Peptides of 15 peptides.

“HEAT SHOCK 70 kDa PROTEIN 9B (MORTALIN-2) (from UniProt P38646 47-679)”: the #Peptides worked out at 11 peptides.
